Experimental data reported in patent US20260266848A1, “COMPOSITIONS AND METHODS FOR DIAGNOSING AND TREATING DYSTONIA” (Duke University, priority 2023, published 2026).

test system: DYT1 patient plasma derived EVs; assay: Plasma-derived EV proteomics (ExoQuick ULTRA, DIA LC/MS/MS), DYT1 vs Healthy Controls; parameters: species or system human; settings: Hs. Plasma EVs (DYT1/WT); significance of genotype difference
Description: Data was obtained for extracellular vesicles using previously acquired samples. The ExoQuick® ULTRA EV Isolation System was used to fractionate and enrich EVs from plasma. Isolated plasma EV samples were then submitted to proteomic analysis by the Duke Proteomics and Metabolomics Core Facility (DPMCF). At the DPMCF, quantitative (LC/MS/MS) was performed on 500 ng of each sample, using an EvoSep One UPLC system coupled to a Thermo Orbitrap Astral high-resolution accurate mass tandem mass spectrometer (Thermo). Briefly, the sample was eluted directly from an Evotip which was subjected to a low organic wash and then subjected to an analytical separation using a 1.7 μm EvoSep 150 um ID×15 cm endurance (EveoSep) column running an SPD30 gradient from approximately 5 to 30% acetonitrile with 0.1% formic acid with a column temperature of 50 C. Data collection on the Orbitrap Astral mass spectrometer was performed in a data-independent acquisition (DIA) mode of acquisition with a r=240,000 (@m/z 200) full MS scan from m/z 380-980 with a target AGC value of 4e5 ions. Fixed DIA, windows of 4 m/z from m/z 380 to 980 DIA MS/MS scans were acquired in the Astral with a target AGC value of 5e4 and a max fill time of 6 ms. HCD collision energy setting of 27% was used for all MS2 scans.

Molecule	-LogP
RBM3 (protein, UniProt P98179 1-157, looked up) RNA-binding protein 3: MSSEEGKLFVGGLNFNTDEQALEDHFSSFGPISEVVVVKDRETQRSRGFGFITFTNPEHASVAMRAMNGESLDGRQIRVDHAGKSARGTRGGGFGAHGRGRSYSRGGGDQGYGSGRYYDSRPGGYGYGYGRSRDYNGRNQGGYDRYSGGNYRDNYDN	2.179
PITPNB (protein, UniProt P48739 1-271, looked up) Phosphatidylinositol transfer …: MVLIKEFRVVLPCSVQEYQVGQLYSVAEASKNETGGGEGIEVLKNEPYEKDGEKGQYTHKIYHLKSKVPAFVRMIAPEGSLVFHEKAWNAYPYCRTIVTNEYMKDDFFIKIETWHKPDLGTLENVHGLDPNTWKTVEIVHIDIADRSQVEPADYKADEDPALFQSVKTKRGPLGPNWKKELANSPDCPQMCAYKLVTIKFKWWGLQSKVENFIQKQEKRIFTNFHRQLFCWIDKWIDLTMEDIRRMEDETQKELETMRKRGSVRGTSAADV	1.575
SEC31A (protein, UniProt O94979 1-1220, looked up) Protein transport protein …: MKLKEVDRTAMQAWSPAQNHPIYLATGTSAQQLDATFSTNASLEIFELDLSDPSLDMKSCATFSSSHRYHKLIWGPYKMDSKGDVSGVLIAGGENGNIILYDPSKIIAGDKEVVIAQNDKHTGPVRALDVNIFQTNLVASGANESEIYIWDLNNFATPMTPGAKTQPPEDISCIAWNRQVQHILASASPSGRATVWDLRKNEPIIKVSDHSNRMHCSGLAWHPDVATQMVLASEDDRLPVIQMWDLRFASSPLRVLENHARGILAIAWSMADPELLLSCGKDAKILCSNPNTGEVLYELPTNTQWCFDIQWCPRNPAVLSAASFDGRISVYSIMGGSTDGLRQKQVDKLSSSFGNLDPFGTGQPLPPLQIPQQTAQHSIVLPLKKPPKWIRRPVGASFSFGGKLVTFENVRMPSHQGAEQQQQQHHVFISQVVTEKEFLSRSDQLQQAVQSQGFINYCQKKIDASQTEFEKNVWSFLKVNFEDDSRGKYLELLGYRKEDLGKKIALALNKVDGANVALKDSDQVAQSDGEESPAAEEQLLGEHIKEEKEESEFLPSSGGTFNISVSGDIDGLITQALLTGNFESAVDLCLHDNRMADAIILAIAGGQELLARTQKKYFAKSQSKITRLITAVVMKNWKEIVESCDLKNWREALAAVLTYAKPDEFSALCDLLGTRLENEGDSLLQTQACLCYICAGNVEKLVACWTKAQDGSHPLSLQDLIEKVVILRKAVQLTQAMDTSTVGVLLAAKMSQYANLLAAQGSIAAALAFLPDNTNQPNIMQLRDRLCRAQGEPVAGHESPKIPYEKQQLPKGRPGPVAGHHQMPRVQTQQYYPHGENPPPPGFIMHGNVNPNAAGQLPTSPGHMHTQVPPYPQPQPYQPAQPYPFGTGGSAMYRPQQPVAPPTSNAYPNTPYISSASSYTGQSQLYAAQHQASSPTSSPATSFPPPPSSGASFQHGGPGAPPSSSAYALPPGTTGTLPAASELPASQRTGPQNGWNDPPALNRVPKKKKMPENFMPPVPITSPIMNPLGDPQSQMLQQQPSAPVPLSSQSSFPQPHLPGGQPFHGVQQPLGQTGMPPSFSKPNIEGAPGAPIGNTFQHVQSLPTKKITKKPIPDEHLILKTTFEDLIQRCLSSATDPQTKRKLDDASKRLEFLYDKLREQTLSPTITSGLHNIARSIETRNYSEGLTMHTHIVSTSNFSETSAFMPVLKVVLTQANKLGV	1.85
ANO6 (protein, UniProt Q4KMQ2 1-910, looked up) Anoctamin-6: MKKMSRNVLLQMEEEEDDDDGDIVLENLGQTIVPDLGSLESQHDFRTPEFEEFNGKPDSLFFNDGQRRIDFVLVYEDESRKETNKKGTNEKQRRKRQAYESNLICHGLQLEATRSVLDDKLVFVKVHAPWEVLCTYAEIMHIKLPLKPNDLKNRSSAFGTLNWFTKVLSVDESIIKPEQEFFTAPFEKNRMNDFYIVDRDAFFNPATRSRIVYFILSRVKYQVINNVSKFGINRLVNSGIYKAAFPLHDCKFRRQSEDPSCPNERYLLYREWAHPRSIYKKQPLDLIRKYYGEKIGIYFAWLGYYTQMLLLAAVVGVACFLYGYLNQDNCTWSKEVCHPDIGGKIIMCPQCDRLCPFWKLNITCESSKKLCIFDSFGTLVFAVFMGVWVTLFLEFWKRRQAELEYEWDTVELQQEEQARPEYEARCTHVVINEITQEEERIPFTAWGKCIRITLCASAVFFWILLIIASVIGIIVYRLSVFIVFSAKLPKNINGTDPIQKYLTPQTATSITASIISFIIIMILNTIYEKVAIMITNFELPRTQTDYENSLTMKMFLFQFVNYYSSCFYIAFFKGKFVGYPGDPVYWLGKYRNEECDPGGCLLELTTQLTIIMGGKAIWNNIQEVLLPWIMNLIGRFHRVSGSEKITPRWEQDYHLQPMGKLGLFYEYLEMIIQFGFVTLFVASFPLAPLLALVNNILEIRVDAWKLTTQFRRLVPEKAQDIGAWQPIMQGIAILAVVTNAMIIAFTSDMIPRLVYYWSFSVPPYGDHTSYTMEGYINNTLSIFKVADFKNKSKGNPYSDLGNHTTCRYRDFRYPPGHPQEYKHNIYYWHVIAAKLAFIIVMEHVIYSVKFFISYAIPDVSKRTKSKIQREKYLTQKLLHENHLKDMTKNMGVIAERMIEAVDNNLRPKSE	1.411
